{"source": "patent US20120149636A1", "key": {"[1]": {"molecular_target": "T1, full length rat GHR (L43R) on BAF3 cells (rat) (UniProt P16310)", "T1 sequence (looked up)": "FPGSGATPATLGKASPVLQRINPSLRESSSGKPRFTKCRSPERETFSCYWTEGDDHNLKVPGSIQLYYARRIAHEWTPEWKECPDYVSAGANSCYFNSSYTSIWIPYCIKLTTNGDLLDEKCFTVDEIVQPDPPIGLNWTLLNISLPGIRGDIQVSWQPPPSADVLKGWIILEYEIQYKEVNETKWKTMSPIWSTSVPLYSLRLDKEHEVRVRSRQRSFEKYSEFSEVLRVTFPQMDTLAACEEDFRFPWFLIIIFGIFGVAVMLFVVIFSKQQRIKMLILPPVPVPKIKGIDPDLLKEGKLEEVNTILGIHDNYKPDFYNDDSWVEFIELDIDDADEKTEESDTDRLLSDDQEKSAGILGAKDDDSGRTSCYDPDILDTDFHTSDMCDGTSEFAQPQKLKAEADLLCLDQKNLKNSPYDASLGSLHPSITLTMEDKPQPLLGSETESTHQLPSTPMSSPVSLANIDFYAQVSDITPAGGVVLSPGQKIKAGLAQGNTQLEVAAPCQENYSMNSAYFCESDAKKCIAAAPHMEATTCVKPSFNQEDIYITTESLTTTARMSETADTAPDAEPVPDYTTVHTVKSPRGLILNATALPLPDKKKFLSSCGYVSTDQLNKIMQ", "test": "cell-based or functional assay"}, "[2]": {"molecular_target": "human growth hormone receptor on IM-9 cells (human) (UniProt P10912)", "sequence (P10912 19-638)": "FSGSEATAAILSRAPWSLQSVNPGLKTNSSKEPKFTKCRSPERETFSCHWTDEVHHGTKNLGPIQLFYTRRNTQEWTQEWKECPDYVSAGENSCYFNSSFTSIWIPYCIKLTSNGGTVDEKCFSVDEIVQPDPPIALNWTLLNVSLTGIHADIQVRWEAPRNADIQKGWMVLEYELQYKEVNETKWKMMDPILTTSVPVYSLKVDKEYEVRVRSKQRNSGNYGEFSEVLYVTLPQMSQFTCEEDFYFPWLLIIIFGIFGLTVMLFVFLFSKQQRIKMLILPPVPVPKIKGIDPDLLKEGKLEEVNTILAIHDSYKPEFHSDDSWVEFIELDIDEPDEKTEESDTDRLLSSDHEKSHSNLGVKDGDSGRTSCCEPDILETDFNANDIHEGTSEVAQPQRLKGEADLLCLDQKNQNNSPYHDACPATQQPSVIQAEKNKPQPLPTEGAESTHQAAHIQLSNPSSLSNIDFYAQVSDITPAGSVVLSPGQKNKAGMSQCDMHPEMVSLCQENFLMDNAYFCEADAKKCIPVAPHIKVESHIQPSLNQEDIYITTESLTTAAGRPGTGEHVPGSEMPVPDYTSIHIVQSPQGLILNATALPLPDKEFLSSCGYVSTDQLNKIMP", "test": "cell-based or functional assay"}}}
{"substance": "Y143pAF-30KPEG (from UniProt P01241 27-217) (ligand)", "values": [{"measurement": "Proliferation EC50 (BrdU), WHO hGH expressed as unity (relative, WHO hGH = 1 (head prints nM))", "setting": "[1]", "value": 6.6}, {"measurement": "pSTAT5 EC50 (IM-9), WHO hGH expressed as unity (relative, WHO hGH = 1 (head prints nM))", "setting": "[2]", "value": 12.3}]}
{"substance": "R134pAF-20KPEG (from UniProt P01241 27-217) (ligand)", "values": [{"measurement": "pSTAT5 EC50 (IM-9), WHO hGH expressed as unity (relative, WHO hGH = 1 (head prints nM))", "setting": "[2]", "value": 5.3}]}
{"substance": "G131pAF-30KPEG (from UniProt P01241 27-217) (ligand)", "values": [{"measurement": "Proliferation EC50 (BrdU), WHO hGH expressed as unity (relative, WHO hGH = 1 (head prints nM))", "setting": "[1]", "value": 4.6}, {"measurement": "pSTAT5 EC50 (IM-9), WHO hGH expressed as unity (relative, WHO hGH = 1 (head prints nM))", "setting": "[2]", "value": 23.8}]}
{"substance": "Y35pAF-40KPEG (from UniProt P01241 27-217) (ligand)", "values": [{"measurement": "Proliferation EC50 (BrdU), WHO hGH expressed as unity (relative, WHO hGH = 1 (head prints nM))", "setting": "[1]", "value": 24}, {"measurement": "pSTAT5 EC50 (IM-9), WHO hGH expressed as unity (relative, WHO hGH = 1 (head prints nM))", "setting": "[2]", "value": 53.3}]}
{"substance": "K145pAF-30KPEG (from UniProt P01241 27-217) (ligand)", "values": [{"measurement": "Proliferation EC50 (BrdU), WHO hGH expressed as unity (relative, WHO hGH = 1 (head prints nM))", "setting": "[1]", "value": 5.3}, {"measurement": "pSTAT5 EC50 (IM-9), WHO hGH expressed as unity (relative, WHO hGH = 1 (head prints nM))", "setting": "[2]", "value": 20.6}]}
